Tests used:
A549 cells = test: ROS levels (DHE reagent) and cell viability by flow cytometry; assay type: cell-based, human; settings: for DHE reagent (Geometric mean) Mean: ROS level
Method: In addition to inducing higher levels of apoptosis compared to the CIGB-300 peptide, the lipopeptide also triggered greater reactive oxygen species (ROS) production in A549 cells after 2 hours of incubation with the antioxidant N-acetyl-L-cysteine (NAC), as analyzed by flow cytometry (Table 2). The elevated ROS levels were correlated with the stronger inhibitory effect of the lipopeptide on cell viability. Table 2: ROS levels induced by the lipopeptide and the CIGB-300 peptide in A549 cells

RR-805 = test: Cell viability, Alamar Blue (benign cells); assay type: cell-based; settings: RR-805, Benign, Renal primary fibroblasts; 48 hours of incubation
MRC-5 = test: Cell viability, Alamar Blue (benign cells); assay type: cell-based; settings: MRC-5, Benign, Lung fibroblasts; 48 hours of incubation
NCI-H125 = test: Tumor cell viability, Alamar Blue; assay type: cell-based, human; settings: NCI-H125, Malignant, NSCLC; 48 hours of incubation
Method: (§1) All human tumor cells used in the present application were obtained from the American Type Culture Collection (ATCC, Manassas, VA, USA) and cultured in RPMI 1640 medium (Gibco) supplemented with 10% (v/v) fetal bovine serum and gentamicin (50 µg/ml) at 37 °C in a 5% CO2 atmosphere. The effects of the lipopeptide and the CIGB-300 peptide on tumor cell viability were assessed using Alamar Blue reagent (Life Technologies, Carlsbad, CA, USA). Cells were seeded in flatbottom 96-well plates (2×10^5 cells/mL, 200 µL/well) and incubated for 24 hours, followed by treatment with the lipopeptide and the CIGB-300 peptide serially diluted from 100 to 3.12 µM at a 1:2 ratio. After 48 hours of incubation, 10% (v/v) Alamar Blue was added, and the cell suspension was incubated for an additional 4 hours. Fluorescence intensity in the microplates was measured, and IC50 values were calculated using CalcuSyn software (version 2.1) (Biosoft, Cambridge, UK).

NCI-H226 = test: Tumor cell viability, Alamar Blue; assay type: cell-based, human; settings: NCI-H226, Malignant, NSCLC; 48 hours of incubation
Method: as §1

NCI-H522 = test: Tumor cell viability, Alamar Blue; assay type: cell-based, human; settings: NCI-H522, Malignant, NSCLC; 48 hours of incubation
Method: as §1

A549 = test: Tumor cell viability, Alamar Blue; assay type: cell-based, human; settings: A549, Malignant, NSCLC; 48 hours of incubation
Method: as §1

SW948 = test: Tumor cell viability, Alamar Blue; assay type: cell-based, human; settings: SW948, Malignant, Colon adenocarcinoma; 48 hours of incubation
Method: as §1

U87 = test: Tumor cell viability, Alamar Blue; assay type: cell-based, human; settings: U87, Malignant, Glioblastoma; 48 hours of incubation
Method: as §1

PC3 = test: Tumor cell viability, Alamar Blue; assay type: cell-based, human; settings: PC3, Malignant, Prostate cancer; 48 hours of incubation
Method: as §1

SK-MES1 = test: Tumor cell viability, Alamar Blue; assay type: cell-based, human; settings: SK-MES1, Malignant, NSCLC; 48 hours of incubation
Method: as §1

NCI-H460 = test: Tumor cell viability, Alamar Blue; assay type: cell-based, human; settings: NCI-H460, Malignant, NSCLC; 48 hours of incubation
Method: as §1

HepG2 = test: Tumor cell viability, Alamar Blue; assay type: cell-based, human; settings: HepG2, Malignant, Hepatocellular carcinoma; 48 hours of incubation
Method: as §1

Hep-2 = test: Tumor cell viability, Alamar Blue; assay type: cell-based, human; settings: Hep-2, Malignant, Laryngeal squamous cell carcinoma; 48 hours of incubation
Method: as §1

NCI-H82 = test: Tumor cell viability, Alamar Blue; assay type: cell-based, human; settings: NCI-H82, Malignant, SCLC; 48 hours of incubation
Method: as §1

A431 = test: Tumor cell viability, Alamar Blue; assay type: cell-based, human; settings: A431, Malignant, Vulvar epidermoid carcinoma; 48 hours of incubation
Method: as §1

recombinant CK2α = test: cell-based or functional assay
Histone H2A type 2-B = Histone H2A type 2-B (Homo sapiens, UniProt Q8IUE6)
[1] = biological target: U6 snRNA-associated Sm-like protein LSm8 (Homo sapiens) (UniProt O95777)
U6 snRNA-associated Sm-like protein LSm8 (Homo sapiens), sequence (O95777 2-96 limits assumed): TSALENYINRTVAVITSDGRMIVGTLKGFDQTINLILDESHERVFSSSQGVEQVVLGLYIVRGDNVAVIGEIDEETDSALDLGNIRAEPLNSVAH

Surfeit locus protein 2 = Surfeit locus protein 2 (Homo sapiens, UniProt Q15527)
Surfeit locus protein 2, sequence (Q15527 whole entry): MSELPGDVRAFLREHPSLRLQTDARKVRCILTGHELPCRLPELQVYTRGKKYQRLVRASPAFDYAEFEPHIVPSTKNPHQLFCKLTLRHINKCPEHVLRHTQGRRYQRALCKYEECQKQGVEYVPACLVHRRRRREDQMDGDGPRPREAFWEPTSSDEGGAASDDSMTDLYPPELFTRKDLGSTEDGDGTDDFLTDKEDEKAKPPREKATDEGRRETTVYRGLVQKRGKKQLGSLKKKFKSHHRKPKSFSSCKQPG

[2] = biological target: Collagen alpha-1(V) chain (Homo sapiens, UniProt P20908)
[3] = biological target: Replication protein A 32 kDa subunit (Homo sapiens, UniProt P15927)
Replication protein A 32 kDa subunit, sequence (P15927 whole entry): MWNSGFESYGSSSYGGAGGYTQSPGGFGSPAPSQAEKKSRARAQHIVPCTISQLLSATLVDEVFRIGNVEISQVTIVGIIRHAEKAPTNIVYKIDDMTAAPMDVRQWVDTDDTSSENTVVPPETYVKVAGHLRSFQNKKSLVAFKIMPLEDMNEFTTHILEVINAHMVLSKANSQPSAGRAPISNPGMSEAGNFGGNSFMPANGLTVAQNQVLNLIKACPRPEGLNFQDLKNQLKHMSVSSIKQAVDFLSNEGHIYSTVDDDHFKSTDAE

Cullin-1 = Cullin-1 (Homo sapiens, UniProt Q13616)
Cullin-1, sequence (Q13616 whole entry): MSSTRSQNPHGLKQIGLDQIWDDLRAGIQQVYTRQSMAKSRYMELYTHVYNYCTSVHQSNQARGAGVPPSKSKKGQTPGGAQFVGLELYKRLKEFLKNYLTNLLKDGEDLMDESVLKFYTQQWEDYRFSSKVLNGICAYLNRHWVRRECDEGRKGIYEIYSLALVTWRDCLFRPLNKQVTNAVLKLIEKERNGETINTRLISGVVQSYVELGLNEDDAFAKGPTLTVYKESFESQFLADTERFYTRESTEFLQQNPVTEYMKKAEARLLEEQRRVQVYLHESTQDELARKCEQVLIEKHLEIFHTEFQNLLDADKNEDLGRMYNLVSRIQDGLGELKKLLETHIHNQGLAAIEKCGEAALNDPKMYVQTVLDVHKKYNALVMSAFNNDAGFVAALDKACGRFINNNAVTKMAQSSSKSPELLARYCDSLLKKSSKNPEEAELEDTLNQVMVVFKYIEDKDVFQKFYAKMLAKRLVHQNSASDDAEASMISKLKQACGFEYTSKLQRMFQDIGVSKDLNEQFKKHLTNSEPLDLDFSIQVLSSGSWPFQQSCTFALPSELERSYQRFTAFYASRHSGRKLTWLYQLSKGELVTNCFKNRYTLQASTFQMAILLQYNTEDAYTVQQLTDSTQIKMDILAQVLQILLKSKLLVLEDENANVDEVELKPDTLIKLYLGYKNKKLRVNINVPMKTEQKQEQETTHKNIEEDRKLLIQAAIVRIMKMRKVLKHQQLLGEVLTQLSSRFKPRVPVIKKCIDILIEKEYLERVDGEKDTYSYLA

[4] = biological target: Serine/arginine-rich splicing factor 8 (Homo sapiens) (UniProt Q9BRL6)
Serine/arginine-rich splicing factor 8 (Homo sapiens), sequence (Q9BRL6 2-282 limits assumed): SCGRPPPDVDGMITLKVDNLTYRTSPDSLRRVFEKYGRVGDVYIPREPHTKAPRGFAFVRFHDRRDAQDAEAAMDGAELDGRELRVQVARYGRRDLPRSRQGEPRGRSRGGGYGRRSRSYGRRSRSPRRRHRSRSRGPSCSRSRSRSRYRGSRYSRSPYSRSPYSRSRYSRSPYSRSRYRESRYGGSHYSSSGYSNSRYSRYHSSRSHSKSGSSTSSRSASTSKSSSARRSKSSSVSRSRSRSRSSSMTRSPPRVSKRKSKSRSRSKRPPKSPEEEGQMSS

[5] = biological target: Calponin-3 (Homo sapiens) (UniProt Q15417)
Calponin-3 (Homo sapiens), sequence (Q15417 whole entry): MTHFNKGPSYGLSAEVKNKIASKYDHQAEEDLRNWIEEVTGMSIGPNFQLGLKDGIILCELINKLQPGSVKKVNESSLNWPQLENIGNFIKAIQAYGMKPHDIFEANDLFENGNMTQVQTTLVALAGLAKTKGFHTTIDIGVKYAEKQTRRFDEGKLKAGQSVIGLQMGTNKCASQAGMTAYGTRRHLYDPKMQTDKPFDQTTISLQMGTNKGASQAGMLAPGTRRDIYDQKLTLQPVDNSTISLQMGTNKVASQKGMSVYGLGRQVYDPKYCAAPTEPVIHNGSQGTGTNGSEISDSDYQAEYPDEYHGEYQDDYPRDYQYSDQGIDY

Xaa-Pro aminopeptidase 1 = Xaa-Pro aminopeptidase 1 (Homo sapiens, UniProt Q9NQW7)
Xaa-Pro aminopeptidase 1, sequence (Q9NQW7 2-623 limits assumed): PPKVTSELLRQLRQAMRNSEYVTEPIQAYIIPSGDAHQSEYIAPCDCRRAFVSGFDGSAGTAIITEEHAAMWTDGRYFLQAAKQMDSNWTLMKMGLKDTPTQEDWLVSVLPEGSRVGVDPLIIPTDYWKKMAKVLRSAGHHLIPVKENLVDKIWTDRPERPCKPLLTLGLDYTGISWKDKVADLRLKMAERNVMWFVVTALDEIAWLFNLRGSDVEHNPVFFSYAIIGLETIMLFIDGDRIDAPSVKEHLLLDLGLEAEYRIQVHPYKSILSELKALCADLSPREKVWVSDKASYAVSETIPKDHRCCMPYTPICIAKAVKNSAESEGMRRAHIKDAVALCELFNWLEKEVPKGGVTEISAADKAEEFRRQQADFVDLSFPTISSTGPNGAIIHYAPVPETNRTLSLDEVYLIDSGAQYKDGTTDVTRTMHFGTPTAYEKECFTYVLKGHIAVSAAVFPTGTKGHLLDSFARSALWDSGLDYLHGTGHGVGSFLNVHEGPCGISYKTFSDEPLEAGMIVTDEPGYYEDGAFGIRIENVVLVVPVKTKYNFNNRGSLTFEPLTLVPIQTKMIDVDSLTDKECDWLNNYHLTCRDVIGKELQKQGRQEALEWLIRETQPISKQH

[6] = biological target: Gem-associated protein 2 (Homo sapiens) (UniProt O14893)
Gem-associated protein 2 (Homo sapiens), sequence (O14893 whole entry): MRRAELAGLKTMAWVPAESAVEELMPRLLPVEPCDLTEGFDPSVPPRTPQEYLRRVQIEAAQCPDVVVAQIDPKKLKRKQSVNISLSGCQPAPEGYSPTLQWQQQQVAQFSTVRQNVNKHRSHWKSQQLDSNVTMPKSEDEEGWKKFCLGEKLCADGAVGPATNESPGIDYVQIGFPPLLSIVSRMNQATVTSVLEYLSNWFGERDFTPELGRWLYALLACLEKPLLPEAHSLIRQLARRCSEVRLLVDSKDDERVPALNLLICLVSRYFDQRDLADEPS

[7] = biological target: High mobility group protein HMGI-C (Homo sapiens) (UniProt P52926)
High mobility group protein HMGI-C (Homo sapiens), sequence (P52926 2-109 limits assumed): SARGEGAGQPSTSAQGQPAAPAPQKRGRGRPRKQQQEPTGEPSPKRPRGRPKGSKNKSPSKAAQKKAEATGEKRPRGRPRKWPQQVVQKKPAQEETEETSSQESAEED

[8] = biological target: Cleavage stimulation subunit 3 (Homo sapiens) (UniProt Q12996)
Cleavage stimulation subunit 3 (Homo sapiens), sequence (Q12996 2-717 limits assumed): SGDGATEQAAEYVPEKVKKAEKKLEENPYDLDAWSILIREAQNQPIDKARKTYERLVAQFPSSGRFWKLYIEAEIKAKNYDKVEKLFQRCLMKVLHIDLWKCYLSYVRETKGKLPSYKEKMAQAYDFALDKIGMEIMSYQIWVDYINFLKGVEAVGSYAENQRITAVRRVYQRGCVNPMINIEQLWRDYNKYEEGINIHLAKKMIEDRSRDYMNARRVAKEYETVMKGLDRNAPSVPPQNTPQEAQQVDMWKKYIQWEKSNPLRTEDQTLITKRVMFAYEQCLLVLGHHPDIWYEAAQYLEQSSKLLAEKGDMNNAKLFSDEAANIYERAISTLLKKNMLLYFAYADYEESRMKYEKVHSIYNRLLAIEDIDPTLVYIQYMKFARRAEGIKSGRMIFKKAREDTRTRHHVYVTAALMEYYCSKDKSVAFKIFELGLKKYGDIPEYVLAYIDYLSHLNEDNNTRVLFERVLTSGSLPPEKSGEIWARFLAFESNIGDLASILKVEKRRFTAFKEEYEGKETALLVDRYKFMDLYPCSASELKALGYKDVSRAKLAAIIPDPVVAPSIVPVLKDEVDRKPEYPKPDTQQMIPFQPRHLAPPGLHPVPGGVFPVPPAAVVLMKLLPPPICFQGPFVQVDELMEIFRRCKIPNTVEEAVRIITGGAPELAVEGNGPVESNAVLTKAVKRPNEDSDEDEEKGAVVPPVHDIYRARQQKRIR

[9] = biological target: Arginyl-tRNA-protein transferase 1 (Homo sapiens, UniProt O95260)
Arginyl-tRNA-protein transferase 1, sequence (O95260 whole entry): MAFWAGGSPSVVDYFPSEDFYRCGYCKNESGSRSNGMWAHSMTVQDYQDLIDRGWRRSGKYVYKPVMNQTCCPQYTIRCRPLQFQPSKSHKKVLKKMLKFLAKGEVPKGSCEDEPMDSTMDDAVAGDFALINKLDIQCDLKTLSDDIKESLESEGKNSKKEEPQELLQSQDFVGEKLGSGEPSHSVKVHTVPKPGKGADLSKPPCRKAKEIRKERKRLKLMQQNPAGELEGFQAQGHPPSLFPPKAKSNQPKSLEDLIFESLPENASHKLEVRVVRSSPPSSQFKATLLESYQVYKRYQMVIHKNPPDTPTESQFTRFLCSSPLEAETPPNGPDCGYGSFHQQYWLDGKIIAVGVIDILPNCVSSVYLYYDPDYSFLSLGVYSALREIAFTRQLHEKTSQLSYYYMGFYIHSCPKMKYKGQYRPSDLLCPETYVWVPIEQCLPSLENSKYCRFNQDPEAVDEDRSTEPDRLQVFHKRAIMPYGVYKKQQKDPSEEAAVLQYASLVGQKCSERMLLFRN

[10] = With NAC, 2 hours of incubation

In the case of `OO` [H2O2], the “Cell viability (%) Mean” value (A549 cells; [10]) is reported as 94.9%, the “DHE reagent (Geometric mean) Mean” value (A549 cells; [10]) is reported as 4175 and the “Cell viability (%) Mean” value (A549 cells; Without NAC) is reported as 94.0%. The “DHE reagent (Geometric mean) Mean” value (A549 cells; Without NAC) was 4335.
In the case of `CSCC[C@@H]1NC(=O)[C@H](Cc2c[nH]c3ccccc23)NC(=O)[C@@H](NC(=O)CCNC(=O)[C@H](CCC(N)=O)NC(=O)[C@@H]2CCCN2C(=O)[C@@H]2CCCN2C(=O)[C@H](CCCNC(=N)N)NC(=O)[C@H](CCCNC(=N)N)NC(=O)[C@H](CCCNC(=N)N)NC(=O)[C@H](CCC(N)=O)NC(=O)[C@H](CCCNC(=N)N)NC(=O)[C@H](CCCNC(=N)N)NC(=O)[C@H](CCCCN)NC(=O)[C@H](CCCCN)NC(=O)[C@H](CCCNC(=N)N)NC(=O)CN)CSSC[C@@H](C(N)=O)NC(=O)[C@H]([C@@H](C)O)NC(=O)CNC(=O)[C@H](CC(C)C)NC(=O)[C@H](Cc2c[nH]cn2)NC(=O)[C@H](CCCNC(=N)N)NC(=O)[C@@H]2CCCN2C(=O)[C@H](CO)NC1=O` [The CIGB-300 peptide, reference compound], the IC50 (RR-805) is reported as 230 ± 6 µM, the IC50 (MRC-5) is reported as 198 ± 8 µM and the IC50 (NCI-H125) is reported as 76.3 ± 2 µM. For the same compound, the IC50 (NCI-H226) was 70.8 µM, the IC50 (NCI-H522) was 70 µM and the IC50 (A549) was 180 ± 30 µM. It also gave an IC50 (SW948) of 143.1 ± 1 µM, an IC50 (U87) of 154 ± 15 µM and an IC50 (PC3) of 170 ± 5 µM. For the same compound, the IC50 (SK-MES1) was 150 ± 7 µM, the IC50 (NCI-H460) was 30 ± 9 µM and the IC50 (HepG2) was 128 ± 44 µM. The IC50 (Hep-2) was 30.7 ± 2 µM, the IC50 (NCI-H82) was 39.7 ± 11 µM and the IC50 (A431) was 90.7 ± 4 µM.
CIGB-300 peptide gave a CK2 enzyme activity (CPM x10^3) at 0.00 µM peptide (baseline without peptide) (recombinant CK2α) of 170000 CPM, a CK2 enzyme activity (CPM x10^3) at 0.097 µM peptide (recombinant CK2α) of 171000 CPM and a CK2 enzyme activity (CPM x10^3) at 0.195 µM peptide (recombinant CK2α) of 169000 CPM. For the same compound, the CK2 enzyme activity (CPM x10^3) at 0.39 µM peptide (recombinant CK2α) was 162000 CPM, the CK2 enzyme activity (CPM x10^3) at 0.781 µM peptide (recombinant CK2α) was 158000 CPM and the CK2 enzyme activity (CPM x10^3) at 1.56 µM peptide (recombinant CK2α) was 109000 CPM. For the same compound, the CK2 enzyme activity (CPM x10^3) at 3.125 µM peptide (recombinant CK2α) was 92000 CPM, the CK2 enzyme activity (CPM x10^3) at 6.25 µM peptide (recombinant CK2α) was 61000 CPM and the CK2 enzyme activity (CPM x10^3) at 12.5 µM peptide (recombinant CK2α) was 31000 CPM. It also gave a CK2 enzyme activity (CPM x10^3) at 25 µM peptide (recombinant CK2α) of 19000 CPM and a CK2 enzyme activity (CPM x10^3) at 50 µM peptide (recombinant CK2α) of 4000 CPM.
“synthetic anti-cancer lipopeptide (decanoyl-CIGB-300)” gave an Abundance ratio of lipopeptide/CIGB-300 (Histone H2A type 2-B) of 2.19, an Abundance ratio of lipopeptide/CIGB-300 [1] of 3.31 and an Abundance ratio of lipopeptide/CIGB-300 (Surfeit locus protein 2) of 2.05. For the same compound, the Abundance ratio of lipopeptide/CIGB-300 [2] was 2.97, the Abundance ratio of lipopeptide/CIGB-300 [3] was 2.1 and the Abundance ratio of lipopeptide/CIGB-300 (Cullin-1) was 2.3. It also gave an Abundance ratio of lipopeptide/CIGB-300 [4] of 2.86, an Abundance ratio of lipopeptide/CIGB-300 [5] of 2.37 and an Abundance ratio of lipopeptide/CIGB-300 (Xaa-Pro aminopeptidase 1) of 2.26. It also gave an Abundance ratio of lipopeptide/CIGB-300 [6] of 2.62, an Abundance ratio of lipopeptide/CIGB-300 [7] of 3.88 and an Abundance ratio of lipopeptide/CIGB-300 [8] of 5.12. For the same compound, the Abundance ratio of lipopeptide/CIGB-300 [9] was 2.01.

— patent EP4796565A1, “SYNTHESIZED ANTI-CANCER LIPOPEPTIDE AND USE THEREOF” (Yongzhou Zhonggu Biotechnology Co., Ltd., priority 2023, dated 2025)
